For one molecule, Kd results are on record in article PMC8262862 (2021).

Targets include H10 HA; H6 HA; H3 HA; H9 HA; H13 HA; H4 HA; H8 HA; B-Phuket HA; H2 HA; H5 HA; H7 HA; H1 HA; H14 HA.
Holding throughout (assay): ELISA

B1: S1V2-51 IgG (antibody, V domains shown)
VH: QVQLVESGGGVVQPGRSLRLSCVASGFTFRDSVMHWVRQAPGKGLEWVAVTSFDGGESYSADSVKGRFTISRDNSKSTLSLQMNILRPEDTGVYYCARDRGGLDVWGQGTTVTVSG
VL: DIVMTQSPESLAVSLGERATINCKSSQSVSFGSSDKNYLGWYQQKPGQPPKLLINWASTRESGVSDRFRGTGSGTDFTLTISSLQAEDAAVYYCHQYYTPPYSFGQGTKLEIK
Regarding B1, the Kd is 0.42 nM with H10 HA; 84 nM with H6 HA; 0.26 nM with H3 HA; 0.21 nM with H9 HA; over 100 nM with H13 HA; 0.21 nM with H4 HA. Besides, the Kd was 0.41 nM in the assay with H8 HA; over 100 nM with B-Phuket HA; over 100 nM with H2 HA; over 100 nM with H5 HA; 0.21 nM with H7 HA; over 100 nM in the assay with H1 HA. In the assay with H14 HA, this molecule yielded a Kd of over 100 nM.
